Our source for the IC50, Median, FL2-H and EC50 (read off the curve) values is US20210277097A1.

The target in experiment [1] is T1, recombinant purified human RGM A (R&D Systems Cat#2459-RM) (human) (UniProt Q96B86).
T1 sequence: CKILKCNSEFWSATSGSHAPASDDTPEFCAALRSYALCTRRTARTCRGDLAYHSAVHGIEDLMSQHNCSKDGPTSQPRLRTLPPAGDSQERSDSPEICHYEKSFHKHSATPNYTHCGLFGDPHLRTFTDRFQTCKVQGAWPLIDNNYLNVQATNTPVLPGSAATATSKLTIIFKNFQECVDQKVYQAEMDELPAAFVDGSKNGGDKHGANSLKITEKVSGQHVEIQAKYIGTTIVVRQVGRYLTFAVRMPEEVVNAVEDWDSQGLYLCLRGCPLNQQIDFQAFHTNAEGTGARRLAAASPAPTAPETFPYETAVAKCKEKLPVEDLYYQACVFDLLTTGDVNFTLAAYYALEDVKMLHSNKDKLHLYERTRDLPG
The experiment can be described thus: competition ELISA on coated hRGMA; competitor: biotinylated chimeric 5F9.

The target in experiment [2] is rat RGM A expressed on BAF3 cells (rat). The experiment can be described thus: FACS on BAF3-ratRGMA stable cell line, unlabelled antibody, anti-rat IgG PE; unstained cells 4.71.
The target of experiment [3] is T1, recombinant purified human RGM A (R&D Systems Cat#2459-RM) (human). As to the kind of experiment: direct ELISA: plate coated with hRGM A 2 µg/mL, biotinylated antibody in 1:5 dilutions, streptavidin-HRP, TMB, OD 450. For orientation: In an ELISA, binding on a coated surface is turned into a signal by an enzyme label.

B1: h5F9.1 (antibody, human IgG1, V domains shown)
VH: EVQLVESGGGVVQPGRSLRLSCAASGFTFSNYGMNWVRQAPGKGLEWVAMIYYDSSEKHYADSVKGRFTISRDNSKNTLYLQMNSLRAEDTAVYYCARGTTPDYWGQGTMVTVSS
VL: DIVMTQTPLSLSVTPGQPASISCRSSQSLEYSDGYTFLEWYLQKPGQSPQLLIYEVSNRFSGVPDRFSGSGSGTDFTLKISRVEAEDVGVYYCFQATHDPLTFGQGTKLEIKR
As for B1, the IC50 in experiment [1] is over 10 µg/mL.

B2: h5F9.3 (antibody, human IgG1, V domains shown)
VH: EVQLVESGGGLVQPGGSLRLSCAASGFTFSNYGMNWVRQAPGKGLEWVSMIYYDSSEKHYADSVKGRFTISRDNSKNTLYLQMNSLRAEDTAVYYCAKGTTPDYWGQGTMVTVSS
VL: DIVMTQTPLSLSVTPGQPASISCRSSQSLEYSDGYTFLEWYLQKPGQSPQLLIYEVSNRFSGVPDRFSGSGSGTDFTLKISRVEAEDVGVYYCFQATHDPLTFGQGTKLEIKR
For B2, the IC50 in experiment [1] is over 10 µg/mL.

B3: h5F9.9 (antibody, human IgG1, V domains shown)
VH: EVQLVESGGGVVQPGRSLRLSCAASGFTFSNYGMNWVRQAPGKGLEWVAMIYYDSSEKHYADSVKGRFTISRDNSKNTLYLQMNSLRAEDTAVYYCARGTTPDYWGQGTMVTVSS
VL: DVVMTQSPLSLPVTLGQPASISCRSSQSLEYSDGYTFLEWYLQKPGQSPQLLIYEVSNRFSGVPDRFSGSGSGTDFTLKISRVEAEDVGVYYCFQATHDPLTFGQGTKLEIKR
B3: the IC50 in experiment [1] is over 10 µg/mL.

B4: h5F9.7 (antibody, human IgG1, V domains shown)
VH: EVQLVESGGGLVQPGGSLRLSCAASGFTFSNYGMNWVRQAPGKGLEWVSMIYYDSSEKHYADSVKGRFTISRDNSKNTLYLQMNSLRAEDTAVYYCAKGTTPDYWGQGTMVTVSS
VL: DVVMTQSPLSLPVTLGQPASISCRSSQSLEYSDGYTFLEWFQQRPGQSPRRLIYEVSNRFSGVPDRFSGSGSGTDFTLKISRVEAEDVGVYYCFQATHDPLTFGQGTKLEIKR
For B4, the half-maximal inhibitory concentration (IC50) in experiment [1] was over 10 µg/mL.

B5: h5F9.11 (antibody, human IgG1, V domains shown)
VH: EVQLVESGGGLVQPGGSLRLSCAASGFTFSNYGMNWVRQAPGKGLEWVSMIYYDSSEKHYADSVKGRFTISRDNSKNTLYLQMNSLRAEDTAVYYCAKGTTPDYWGQGTMVTVSS
VL: DVVMTQSPLSLPVTLGQPASISCRSSQSLEYSDGYTFLEWYLQKPGQSPQLLIYEVSNRFSGVPDRFSGSGSGTDFTLKISRVEAEDVGVYYCFQATHDPLTFGQGTKLEIKR
For B5, in experiment [1], the IC50 was over 10 µg/mL.

B6: h5F9.5 (antibody, human IgG1, V domains shown)
VH: EVQLVESGGGVVQPGRSLRLSCAASGFTFSNYGMNWVRQAPGKGLEWVAMIYYDSSEKHYADSVKGRFTISRDNSKNTLYLQMNSLRAEDTAVYYCARGTTPDYWGQGTMVTVSS
VL: DVVMTQSPLSLPVTLGQPASISCRSSQSLEYSDGYTFLEWFQQRPGQSPRRLIYEVSNRFSGVPDRFSGSGSGTDFTLKISRVEAEDVGVYYCFQATHDPLTFGQGTKLEIKR
With B6, the IC50 in experiment [1] was over 10 µg/mL.

B7: rat anti-human RGM A monoclonal antibody 5F9 (antibody, V domains shown)
VH: EVQLVESGGGLVQPGSSLKLSCVASGFTFSNYGMNWIRQAPKKGLEWIGMIYYDSSEKHYADSVKGRFTISRDNSKNTLYLEMNSLRSEDTAIYYCAKGTTPDYWGQGVMVTVSS
VL: DVVLTQTPVSLSVTLGDQASMSCRSSQSLEYSDGYTFLEWFLQKPGQSPQLLIYEVSNRFSGVPDRFIGSGSGTDFTLKISRVEPEDLGVYYCFQATHDPLTFGSGTKLEIKR
For the molecule B7, the Median, FL2-H in experiment [2] stood at 29.6. Besides, the EC50 (read off the curve) in experiment [3] came to 0.08 µg/mL.

B8: h5F9.12 (antibody, human IgG1, V domains shown)
VH: EVQLVESGGGLVQPGGSLRLSCAASGFTFSNYGMNWIRQAPGKGLEWIGMIYYDSSEKHYADSVKGRFTISRDNSKNTLYLQMNSLRAEDTAVYYCAKGTTPDYWGQGTMVTVSS
VL: DVVMTQSPLSLPVTLGQPASISCRSSQSLEYSDGYTFLEWYLQKPGQSPQLLIYEVSNRFSGVPDRFSGSGSGTDFTLKISRVEAEDVGVYYCFQATHDPLTFGQGTKLEIKR
Regarding B8, in experiment [1], the 50% inhibitory concentration (IC50) was over 10 µg/mL.

B9: h5F9.20 (antibody, human IgG1, V domains shown)
VH: EVQLVESGGGVVQPGRSLRLSCAASGFTFSNYGMNWIRQAPGKGLEWIGMIYYDSSEKHYADSVKGRFTISRDNSKNTLYLQMNSLRAEDTAVYYCAKGTTPDYWGQGTMVTVSS
VL: DVVLTQSPLSLPVTLGQPASISCRSSQSLEYSDGYTFLEWFQQRPGQSPRRLIYEVSNRFSGVPDRFSGSGSGTDFTLKISRVEAEDVGVYYCFQATHDPLTFGQGTKLEIKR
Take B9: the IC50 in experiment [1] was over 2 µg/mL.

B10: h5F9.2 (antibody, human IgG1, V domains shown)
VH: EVQLVESGGGVVQPGRSLRLSCAASGFTFSNYGMNWIRQAPGKGLEWIGMIYYDSSEKHYADSVKGRFTISRDNSKNTLYLQMNSLRAEDTAVYYCAKGTTPDYWGQGTMVTVSS
VL: DIVMTQTPLSLSVTPGQPASISCRSSQSLEYSDGYTFLEWYLQKPGQSPQLLIYEVSNRFSGVPDRFSGSGSGTDFTLKISRVEAEDVGVYYCFQATHDPLTFGQGTKLEIKR
Take B10: in experiment [1], the IC50 is over 10 µg/mL.

B11: h5F9.22 (antibody, human IgG1, V domains shown)
VH: EVQLVESGGGVVQPGRSLRLSCAASGFTFSNYGMNWIRQAPGKGLEWIGMIYYDSSEKHYADSVKGRFTISRDNSKNTLYLQMNSLRAEDTAVYYCAKGTTPDYWGQGTMVTVSS
VL: DVVLTQSPLSLPVTLGQPASISCRSSQSLEYSDGYTFLEWYLQKPGQSPQLLIYEVSNRFSGVPDRFSGSGSGTDFTLKISRVEAEDVGVYYCFQATHDPLTFGQGTKLEIKR
With B11, the IC50 in experiment [1] is over 2 µg/mL.

B12: h5F9.6 (antibody, human IgG1, V domains shown)
VH: EVQLVESGGGVVQPGRSLRLSCAASGFTFSNYGMNWIRQAPGKGLEWIGMIYYDSSEKHYADSVKGRFTISRDNSKNTLYLQMNSLRAEDTAVYYCAKGTTPDYWGQGTMVTVSS
VL: DVVMTQSPLSLPVTLGQPASISCRSSQSLEYSDGYTFLEWFQQRPGQSPRRLIYEVSNRFSGVPDRFSGSGSGTDFTLKISRVEAEDVGVYYCFQATHDPLTFGQGTKLEIKR
On to B12, for which the IC50 in experiment [1] was over 10 µg/mL.

B13: h5F9.8 (antibody, human IgG1, V domains shown)
VH: EVQLVESGGGLVQPGGSLRLSCAASGFTFSNYGMNWIRQAPGKGLEWIGMIYYDSSEKHYADSVKGRFTISRDNSKNTLYLQMNSLRAEDTAVYYCAKGTTPDYWGQGTMVTVSS
VL: DVVMTQSPLSLPVTLGQPASISCRSSQSLEYSDGYTFLEWFQQRPGQSPRRLIYEVSNRFSGVPDRFSGSGSGTDFTLKISRVEAEDVGVYYCFQATHDPLTFGQGTKLEIKR
For the molecule B13, the IC50 in experiment [1] is over 10 µg/mL.

B14: h5F9.26 (antibody, human IgG1, V domains shown)
VH: EVQLVESGGGLVQPGGSLRLSCAASGFTFSNYGMNWIRQAPGKGLEWIGMIYYDSSEKHYADSVKGRFTISRDNSKNTLYLQMNSLRAEDTAVYYCAKGTTPDYWGQGTMVTVSS
VL: DVVLTQSPLSLPVTLGQPASISCRSSQSLEYSDGYTFLEWYLQKPGQSPQLLIYEVSNRFSGVPDRFSGSGSGTDFTLKISRVEAEDVGVYYCFQATHDPLTFGQGTKLEIKR
Turning to B14, the IC50 in experiment [1] is over 2 µg/mL.

B15: h5F9.4 (antibody, human IgG1, V domains shown)
VH: EVQLVESGGGLVQPGGSLRLSCAASGFTFSNYGMNWIRQAPGKGLEWIGMIYYDSSEKHYADSVKGRFTISRDNSKNTLYLQMNSLRAEDTAVYYCAKGTTPDYWGQGTMVTVSS
VL: DIVMTQTPLSLSVTPGQPASISCRSSQSLEYSDGYTFLEWYLQKPGQSPQLLIYEVSNRFSGVPDRFSGSGSGTDFTLKISRVEAEDVGVYYCFQATHDPLTFGQGTKLEIKR
Regarding B15, in experiment [1], the IC50 is over 10 µg/mL.

B16: h5F9.10 (antibody, human IgG1, V domains shown)
VH: EVQLVESGGGVVQPGRSLRLSCAASGFTFSNYGMNWIRQAPGKGLEWIGMIYYDSSEKHYADSVKGRFTISRDNSKNTLYLQMNSLRAEDTAVYYCAKGTTPDYWGQGTMVTVSS
VL: DVVMTQSPLSLPVTLGQPASISCRSSQSLEYSDGYTFLEWYLQKPGQSPQLLIYEVSNRFSGVPDRFSGSGSGTDFTLKISRVEAEDVGVYYCFQATHDPLTFGQGTKLEIKR
Consider B16, for which, in experiment [1], the IC50 is over 10 µg/mL.

B17: rat anti-human RGM A monoclonal antibody 8D1 (antibody, V domains shown)
VH: EVQLQQSGPELVKPGTSVKMSCKTSGYTFTSYVMHWVKQKPGQGLEWIGYIIPYNDNTKYNEKFKGKATLTSDKSSSTAYMELSSLTSEDSAVYYCARRNEYYGSSFFDYWGQGTTLTVSS
VL: DIQMTQSPASLSASLEEIVTITCQASQDIDNYLAWYHQKPGKSPRLLIYGATNLADGVPSRFSGSRSGTQFSLKINRLQIEDLGIYYCLQGYIPPRTFGGGTKLELKR
B17 came in with a Median, FL2-H in experiment [2] of 5.37. In experiment [3], the EC50 (read off the curve) turned out to be 0.2 µg/mL.

The term IC50 denotes the concentration at which inhibition is half-maximal. Usually EC50 (read off the curve) stands for the concentration at which the effect is half-maximal.
